The data set deals with the molecule itself. Put plainly: SDS-PAGE of undigested full-length DIG-177 (self-association).

Procedure: SDS-PAGE was run following the protocol NuPAGE Bis-Tris gels from Invitrogen Life technologies (Protocol Pub. No. MAN0007894 Rev. A.0, Ref.2). Briefly, samples were mixed with denaturing sample buffer (Invitrogen) plus 5 mM DTT (for reducing PAGE) or minus DTT (for non reducing PAGE) and heated at 95° C. for 5 minutes. The samples were loaded onto Invitrogen Bis/Tris gel. The gel was run with MOPS or MES running buffer under 200 V for ˜43 minutes. The gel was stained with Coomassie blue staining solution (Bio-Rad) for 30 minutes and de-stained with de-staining solution (7% Acetic acid and 5% Methanol in water) until the background cleared.

B1: DIG-177 (full length wild type Cry6Aa) (other)
chain: MIIDSKTTLPRHSLIHTIKLNSNKKYGPGDMTNGNQFIISKQEWATIGAYIQTGLGLPVNEQQLRTHVNLSQDISIPSDFSQLYDVYCSDKTSAEWWNKNLYPLIIKSANDIASYGFKVAGDPSIKKDGYFKKLQDELDNIVDNNSDDDAIAKAIKDFKARCGILIKEAKQYEEAAKNIVTSLDQFLHGDQKKLEGVINIQKRLKEVQTALNQAHGESSPAHKELLEKVKNLKTTLERTIKAEQDLEKKVEYSFLLGPLLGFVVYEILENTAVQHIKNQIDEIKKQLDSAQHDLDRDVKIIGMLNSINTDIDNLYSQGQEAIKVFQKLQGIWATIGAQIENLRTTSLQEVQDSDDADEIQIELEDASDAWLVVAQEARDFTLNAYSTNSRQNLPINVISDSCNCSTTNMTSNQYSNPTTNMTSNQYMISHEYTSLPNNFMLSRNSNLEYKCPENNFMIYWYNNSDWYNNSDWYNN
notes: Recombinant, produced in Pseudomonas fluorescens (standard) or in maize cells (Western blots)
In the case of B1, the binding result is “binds”.

Values taken from US20200184403A1 (DOW AGROSCIENCES, published 2020).
